From patent publication US10766952B2, “Methods for reducing migraine frequency in a subject in need thereof” (Beth Israel Deaconess Medical Center, Inc., priority 2017, dated 2020)

T1: human α-CGRP (Homo sapiens, UniProt P06881)
T1 construct: 1-37 (WT); purchased; host or cells: synthetic peptide
T1 sequence (P06881 83-119 limits assumed): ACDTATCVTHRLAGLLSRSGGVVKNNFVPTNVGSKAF

T2: rat α-CGRP (Rattus norvegicus, UniProt P01256)
T2 construct: rat α (1-37); host or cells: synthetic peptide
T2 sequence (P01256 83-119 limits assumed): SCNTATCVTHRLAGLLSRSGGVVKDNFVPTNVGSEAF


How the values were obtained:
[1] = biological target: T1, human α-CGRP; experiment: Biacore affinity of antibody G1 Fab and variants to human α-CGRP; format: binding; conditions: 37° C., Fab, screening mode unless underlined
Experimental: (§1) Biacore assay for affinity determination. […] All Biacore assays were conducted in HBS-EP running buffer (10 mM HEPES pH 7.4, 150 mM NaCl, 3 mM EDTA, 0.005% v/v polysorbate P20). CGRP surfaces were prepared by diluting the N-biotinylated CGRP to a concentration of less than 0.001 mg/mL into HBS-EP buffer and injecting it across the SA sensor chip using variable contact times. Low capacity surfaces, corresponding to capture levels <50 response units (RU) were used for high-resolution kinetic studies, whereas high capacity surfaces (about 800 RU of captured CGRP) were used for concentration studies, screening, and solution affinity determinations. […] Samples were typically injected for lminute at 100 μL/min and dissociation times of at least 10 minutes were allowed. After each binding cycle, surfaces were regenerated with 25 mM NaOH in 25% v/v ethanol, which was tolerated over hundreds of cycles. An entire titration series (typically generated in duplicate) was fit globally to a 1:1 Langmuir binding model using the BlAevaluation program. This returned a unique pair of association and dissociation kinetic rate constants (respectively, kon and koff) for each binding interaction, whose ratio gave the equilibrium dissociation constant (KD=koff/[…]).
(§2) High-resolution analysis of binding interactions with extremely slow offrates. […] The protocol described above was used with the following modifications. The association rate constant (kon) was determined by injecting a 2-fold titration series (in duplicate) spanning 550 nM-1 nM for 30 seconds at 100 μL/min and allowing only a 30 second dissociation phase. The dissociation rate constant (koff) was determined by injecting three concentrations (high, medium, and low) of the same titration series in duplicate for 30 seconds and allowing a 2-hour dissociation phase. The affinity (KD) of each interaction was obtained by combining the kon and koff values obtained in both types of experiments, as shown in Table 4.
(§3) The binding affinities of Fab fragments were determined by Biacore by flowing them across CGRPs on a SA chip.

[2] = biological target: T2, rat α-CGRP; experiment: Biacore affinity of antibody G1 Fab and variants to rat α-CGRP; format: binding; conditions: 37° C., Fab, screening mode unless underlined
Experimental: as §1, §2, §3

α-human koff [1] [s⁻¹] | α-rat koff [2] | Molecule
0.000322 | 0.0104 s⁻¹ | M57: G1 variant: L1 R28N,T30D; L2 L56S; H2 E54K,A57N,S58E; HC-FW3 L99T,A100V (antibody, V domains shown) VH: EVQLVESGGGLVQPGGSLRLSCAASGFTFSNYWISWVRQAPGKGLEWVAEIRSKSDNEATHYAEAVKGRFTISRDNAKNSLYLQMNSLRAEDTAVYYCTVYFDYGLAIQNYWGQGTLVTVSS VL: EIVLTQSPATLSLSPGERATLSCKASKNVDTYVSWYQQKPGQAPRLLIYGASNRYSGIPARFSGSGSGTDFTLTISSLEPEDFAVYYCSQSYNYPYTFGQGTKLEIK
0.00195 | No binding | M58: G1 variant: L1 R28N,T30D; L2 L56S; H2 E54K,A57N,S58I,H61F; HC-FW3 L99T,A100V (antibody, V domains shown) VH: EVQLVESGGGLVQPGGSLRLSCAASGFTFSNYWISWVRQAPGKGLEWVAEIRSKSDNIATFYAEAVKGRFTISRDNAKNSLYLQMNSLRAEDTAVYYCTVYFDYGLAIQNYWGQGTLVTVSS VL: EIVLTQSPATLSLSPGERATLSCKASKNVDTYVSWYQQKPGQAPRLLIYGASNRYSGIPARFSGSGSGTDFTLTISSLEPEDFAVYYCSQSYNYPYTFGQGTKLEIK
0.000524 | 0.0123 s⁻¹ | M59: G1 variant: L1 R28N,T30D; L2 L56S; H2 E54K,A57N,S58N,H61F; HC-FW3 L99T,A100V (antibody, V domains shown) VH: EVQLVESGGGLVQPGGSLRLSCAASGFTFSNYWISWVRQAPGKGLEWVAEIRSKSDNNATFYAEAVKGRFTISRDNAKNSLYLQMNSLRAEDTAVYYCTVYFDYGLAIQNYWGQGTLVTVSS VL: EIVLTQSPATLSLSPGERATLSCKASKNVDTYVSWYQQKPGQAPRLLIYGASNRYSGIPARFSGSGSGTDFTLTISSLEPEDFAVYYCSQSYNYPYTFGQGTKLEIK
0.00082 | 0.00171 s⁻¹ | M67: G1 variant: L1 R28N,T30G; L2 L56I; H2 E54K,A57F; HC-FW3 L99T,A100V (antibody, V domains shown) VH: EVQLVESGGGLVQPGGSLRLSCAASGFTFSNYWISWVRQAPGKGLEWVAEIRSKSDFSATHYAEAVKGRFTISRDNAKNSLYLQMNSLRAEDTAVYYCTVYFDYGLAIQNYWGQGTLVTVSS VL: EIVLTQSPATLSLSPGERATLSCKASKNVGTYVSWYQQKPGQAPRLLIYGASNRYIGIPARFSGSGSGTDFTLTISSLEPEDFAVYYCSQSYNYPYTFGQGTKLEIK
0.000428 | 0.00676 s⁻¹ | M68: G1 variant: L1 R28N,T30G; L2 L56I; H2 E54K,A57N,S58D,E64D; HC-FW3 L99T,A100V (antibody, V domains shown) VH: EVQLVESGGGLVQPGGSLRLSCAASGFTFSNYWISWVRQAPGKGLEWVAEIRSKSDNDATHYADAVKGRFTISRDNAKNSLYLQMNSLRAEDTAVYYCTVYFDYGLAIQNYWGQGTLVTVSS VL: EIVLTQSPATLSLSPGERATLSCKASKNVGTYVSWYQQKPGQAPRLLIYGASNRYIGIPARFSGSGSGTDFTLTISSLEPEDFAVYYCSQSYNYPYTFGQGTKLEIK
0.0015 | 0.00265 s⁻¹ | M63: G1 variant: L1 R28N,T30G; L2 G50A; H2 E54K,A57N,S58T; HC-FW3 L99T,A100V (antibody, V domains shown) VH: EVQLVESGGGLVQPGGSLRLSCAASGFTFSNYWISWVRQAPGKGLEWVAEIRSKSDNTATHYAEAVKGRFTISRDNAKNSLYLQMNSLRAEDTAVYYCTVYFDYGLAIQNYWGQGTLVTVSS VL: EIVLTQSPATLSLSPGERATLSCKASKNVGTYVSWYQQKPGQAPRLLIYAASNRYLGIPARFSGSGSGTDFTLTISSLEPEDFAVYYCSQSYNYPYTFGQGTKLEIK
0.000557 | 0.00575 s⁻¹ | M62: G1 variant: L1 R28N,T30G; L2 A51H,L56T; H2 E54K,A57N,S58E; HC-FW3 L99T,A100V (antibody, V domains shown) VH: EVQLVESGGGLVQPGGSLRLSCAASGFTFSNYWISWVRQAPGKGLEWVAEIRSKSDNEATHYAEAVKGRFTISRDNAKNSLYLQMNSLRAEDTAVYYCTVYFDYGLAIQNYWGQGTLVTVSS VL: EIVLTQSPATLSLSPGERATLSCKASKNVGTYVSWYQQKPGQAPRLLIYGHSNRYTGIPARFSGSGSGTDFTLTISSLEPEDFAVYYCSQSYNYPYTFGQGTKLEIK
0.000459 | 0.00521 s⁻¹ | M61: G1 variant: L1 R28N,T30G; L2 A51H; H2 E54Q,A57N,H61F; HC-FW3 L99T,A100V (antibody, V domains shown) VH: EVQLVESGGGLVQPGGSLRLSCAASGFTFSNYWISWVRQAPGKGLEWVAEIRSQSDNSATFYAEAVKGRFTISRDNAKNSLYLQMNSLRAEDTAVYYCTVYFDYGLAIQNYWGQGTLVTVSS VL: EIVLTQSPATLSLSPGERATLSCKASKNVGTYVSWYQQKPGQAPRLLIYGHSNRYLGIPARFSGSGSGTDFTLTISSLEPEDFAVYYCSQSYNYPYTFGQGTKLEIK
0.000911 | 0.0272 s⁻¹ | M60: G1 variant: L1 R28N,T30D; L2 L56S; H2 E54K,A57N,S58R,H61F; HC-FW3 L99T,A100V (antibody, V domains shown) VH: EVQLVESGGGLVQPGGSLRLSCAASGFTFSNYWISWVRQAPGKGLEWVAEIRSKSDNRATFYAEAVKGRFTISRDNAKNSLYLQMNSLRAEDTAVYYCTVYFDYGLAIQNYWGQGTLVTVSS VL: EIVLTQSPATLSLSPGERATLSCKASKNVDTYVSWYQQKPGQAPRLLIYGASNRYSGIPARFSGSGSGTDFTLTISSLEPEDFAVYYCSQSYNYPYTFGQGTKLEIK
0.000803 | 0.00407 s⁻¹ | M65: G1 variant: L1 R28N,T30G; L2 G50A,L56I; H2 E54K,A57C; HC-FW3 L99T,A100V (antibody, V domains shown) VH: EVQLVESGGGLVQPGGSLRLSCAASGFTFSNYWISWVRQAPGKGLEWVAEIRSKSDCSATHYAEAVKGRFTISRDNAKNSLYLQMNSLRAEDTAVYYCTVYFDYGLAIQNYWGQGTLVTVSS VL: EIVLTQSPATLSLSPGERATLSCKASKNVGTYVSWYQQKPGQAPRLLIYAASNRYIGIPARFSGSGSGTDFTLTISSLEPEDFAVYYCSQSYNYPYTFGQGTKLEIK
0.00132 | 0.0234 s⁻¹ | M64: G1 variant: L1 R28N,T30G; L2 G50A; H2 E54K,A57N,S58V; HC-FW3 L99T,A100V (antibody, V domains shown) VH: EVQLVESGGGLVQPGGSLRLSCAASGFTFSNYWISWVRQAPGKGLEWVAEIRSKSDNVATHYAEAVKGRFTISRDNAKNSLYLQMNSLRAEDTAVYYCTVYFDYGLAIQNYWGQGTLVTVSS VL: EIVLTQSPATLSLSPGERATLSCKASKNVGTYVSWYQQKPGQAPRLLIYAASNRYLGIPARFSGSGSGTDFTLTISSLEPEDFAVYYCSQSYNYPYTFGQGTKLEIK
0.00052 | 0.00511 s⁻¹ | M66: G1 variant: L1 R28N,T30G; L2 L56I; H2 E54K,A57E; HC-FW3 L99T,A100V (antibody, V domains shown) VH: EVQLVESGGGLVQPGGSLRLSCAASGFTFSNYWISWVRQAPGKGLEWVAEIRSKSDESATHYAEAVKGRFTISRDNAKNSLYLQMNSLRAEDTAVYYCTVYFDYGLAIQNYWGQGTLVTVSS VL: EIVLTQSPATLSLSPGERATLSCKASKNVGTYVSWYQQKPGQAPRLLIYGASNRYIGIPARFSGSGSGTDFTLTISSLEPEDFAVYYCSQSYNYPYTFGQGTKLEIK
0.000733 | 0.00181 s⁻¹ | M69: G1 variant: L1 R28N,T30G; L2 L56I; H2 E54K,A57N,S58E; HC-FW3 L99T,A100V (antibody, V domains shown) VH: EVQLVESGGGLVQPGGSLRLSCAASGFTFSNYWISWVRQAPGKGLEWVAEIRSKSDNEATHYAEAVKGRFTISRDNAKNSLYLQMNSLRAEDTAVYYCTVYFDYGLAIQNYWGQGTLVTVSS VL: EIVLTQSPATLSLSPGERATLSCKASKNVGTYVSWYQQKPGQAPRLLIYGASNRYIGIPARFSGSGSGTDFTLTISSLEPEDFAVYYCSQSYNYPYTFGQGTKLEIK
